Laboratory results published in US20130196406A1, “NOVEL PROTEIN-POLYMER NANOCAPSULES” (University of Connecticut, priority 2012, published 2013).
Values joined by “and” are separate entries in the source; they are usually repeats but may differ in a detail not shown here. Equal values may be shown once.

System: T1, COc1ccccc1O
T1 construct: peroxidase-like activity with guaiacol/H2O2
Assay: Peroxidase-like activity, Michaelis-Menten kinetics (guaiacol oxidation by H2O2, 470 nm), unmodified Hb
Assay type: biochemical, bovine
Conditions: other: Hb, 1 μM Hb, 2.5 mM guaiacol
Method: FIG. 5 provides Lineweaver-Burk plots for the peroxidase-like activity of Hb-PAA conjugates. A) Peroxidase-like activity for the 1 μM of Hb-PAA synthesized at pH 6.0. B) Peroxidase-like activity for 1 μM Hb-PAA synthesized at pH 7.0. All experiments were done in the presence of 1 μM Hb, 2.5 mM guaiacol and 1 mM H2O2.
Polyacrylic acid (PAA) (8000 Da) was purchased from sigma chemical Co (St. Louis, Mo.). The PAA stock solution was made by mixing 1.32 gm of 45% (w/w) PAA in 3 ml of 20 mM Na2HPO4 buffer, pH 7.2, and was further used for synthesis. Met-hemoglobin (Hb, bovine) was purchased from Sigma. Protein solutions were prepared in the respective buffers used for synthesis and the concentrations determined from the Soret absorbance of Hb using extinction co-efficient 303,956 M^−1 cm^−1 at 407 nm.
Hb activity was monitored by the addition of guaiacol (substrate) and hydrogen peroxide (oxidant), and formation of the colored product has been monitored by its absorption at 470 nm as a function of time (FIG. 4). […]
Hb activity was followed by literature method, with minor modifications. Product absorbance at 470 nm was monitored as a function time of after the addition of H2O2 (1 mM) to Hb (5 μM) and o-methoxyphenol (2.5 mM). Initial rates and Michaelis-Menten parameters were calculated from the kinetic data by following standard protocols. […]

Sequence of Met-hemoglobin (Hb, bovine), unmodified (Bos taurus) (chain, as listed by the source): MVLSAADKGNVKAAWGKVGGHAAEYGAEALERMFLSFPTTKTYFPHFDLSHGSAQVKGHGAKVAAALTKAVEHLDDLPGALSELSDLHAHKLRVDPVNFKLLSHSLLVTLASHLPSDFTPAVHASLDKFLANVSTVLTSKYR
Sequence of Met-hemoglobin (Hb, bovine), unmodified (Bos taurus) (chain, as listed by the source): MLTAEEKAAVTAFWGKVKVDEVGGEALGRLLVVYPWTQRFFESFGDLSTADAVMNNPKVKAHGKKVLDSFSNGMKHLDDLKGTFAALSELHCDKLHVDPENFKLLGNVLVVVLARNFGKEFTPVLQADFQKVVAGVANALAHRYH

In the case of “Met-hemoglobin (Hb, bovine), unmodified (Bos taurus)”, the Km (1 mM H2O2) is reported as 500 µM and 507 µM and the Vmax (1 mM H2O2, 120.0 °C) is reported as 0.0026 mM/s and 0.0021 mM/s.
